The values below are quoted from earlier work in PMC8526499.

Series [1] concerns the target CD47 (Homo sapiens) (UniProt Q08722).
The target in the next series is CD47 (Mus musculus) (UniProt Q61735).
For series [2], the target named is CD47 (Homo sapiens) (UniProt Q08722). The source holds these as a separate data set.
For series [3] the target is unchanged. The source holds these as a separate data set.

pKd: −log10 of the molar value. Read-outs that look alike come from different tables or passages of the source.

UniProt Q08722, sequence (Q08722 19-323): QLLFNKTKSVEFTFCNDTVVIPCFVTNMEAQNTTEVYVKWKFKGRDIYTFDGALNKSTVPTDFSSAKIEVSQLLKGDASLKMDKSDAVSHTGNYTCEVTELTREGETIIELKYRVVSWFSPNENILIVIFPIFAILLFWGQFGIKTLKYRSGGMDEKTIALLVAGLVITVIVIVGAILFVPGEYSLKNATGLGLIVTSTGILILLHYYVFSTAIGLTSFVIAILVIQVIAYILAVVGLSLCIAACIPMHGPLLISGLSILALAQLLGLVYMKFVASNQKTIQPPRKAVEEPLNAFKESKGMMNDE
UniProt Q61735, sequence (Q61735 19-303): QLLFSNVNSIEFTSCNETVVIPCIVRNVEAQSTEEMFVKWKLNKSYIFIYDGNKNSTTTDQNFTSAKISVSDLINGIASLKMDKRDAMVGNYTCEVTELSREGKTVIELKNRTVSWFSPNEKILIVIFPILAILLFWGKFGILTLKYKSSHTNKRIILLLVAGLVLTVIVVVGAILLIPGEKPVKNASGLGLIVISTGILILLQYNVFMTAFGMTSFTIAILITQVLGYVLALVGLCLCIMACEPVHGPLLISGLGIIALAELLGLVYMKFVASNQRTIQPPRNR

As usually defined, the pKd is the Kd on a negative log10 scale, so that one unit is a factor of ten. With SIRPα (from UniProt P78324), the negative-log Kd (pKd) with CD47 (Homo sapiens) [1] was 6.35.
Consider SIRPα (C57BL/6) (from UniProt P97797), for which the negative-log Kd (pKd) with CD47 (Mus musculus) and with CD47 (Homo sapiens) [2] was 5.30 throughout.
On to SIRPα (NOD) (from UniProt P97797), for which the pKd with CD47 (Homo sapiens) [3] is 7.10.
